Assay results as given in patent publication US7449563B2, “Methods and compositions for destabilizing microtubules” (Academia Sinica, priority 2003, dated 2008).

Tests used:
Bovine brain α/β tubulin = molecular target: T1, Bovine brain α/β tubulin (Bos taurus, UniProt P81947+Q6B856); assay: In vitro microtubule sedimentation assay; assay type: biochemical; conditions: 15 μM tubulin; 40 μM polypeptide
T1 construct: Bovine brain α/β tubulin (15 μM; Cytoskeleton Inc., Denver, Colo.); purchased Cytoskeleton Inc., Denver, Colo; host or cells: bovine brain (tissue-purified)
Procedure: In vitro Microtubule Sedimentation Assay
Bovine brain α/β tubulin (15 μM; Cytoskeleton Inc., Denver, Colo.) was pre-incubated with various amounts of truncated GST-CPAP proteins in a 50 μl reaction mixture comprising RG1 buffer (see Example 2) for 30 min at 37° C. Tubulin polymerization was initiated by adding 50 μl GMRG buffer (RG1 buffer supplemented with 12 mM MgCl2 and 50% glycerol), then incubating the reaction mixtures at 37° C. for 1.5 hr.
The reaction mixtures were then subjected to centrifugation at 300,000×g for 15 min at 37° C., in a TL-100 ultracentrifuge (Beckman Instruments, Fullerton, Calif.). Supernatants (S) and pellets (P) were analyzed by SDS-PAGE followed by staining with Coomassie blue.
Microtubule disassembly was confirmed using the microtubule sedimentation assay. Following centrifugation of the reaction mixtures, relatively soluble tubulin monomers and small multimers are found in the supernatant, while relatively insoluble polymerized tubulin is found in the pellet. To assay the ability of PN2-3-containing polypeptides to destabilize microtubules, reactions comprising 15 μM tubulin were incubated in the presence of increasing amounts of GST-PN2-3 (1.9, 3.8, 7.5, and 15 μM) or GST-PN2-2 (15, 30, or 40 μM), or in the absence of CPAP-derived polypeptides (control; FIG. 4A).

[1] = molecular target: T2, polymerized microtubules (bovine brain tubulin) (Bos taurus, UniProt P81947+Q6B856); assay: Microtubule depolymerization assay (centrosomes omitted); assay type: biochemical; conditions: centrosomes absent; nocodazole 15 μM as positive control; data not shown
T2 construct: containing 125 μg bovine brain tubulin (Cytoskeleton, Denver, Colo.); purchased Cytoskeleton, Denver, Colo; host or cells: bovine brain (tissue-purified)
Procedure: Microtubule Depolymerization Assay
In this assay, centrosomes are omitted from the above reaction mixtures to determine the effects of various truncated GST-CPAP proteins or synthetic peptides on microtubule polymerization in the absence of centrosomes. Polymerized microtubules were stained using FITC-conjugated anti-α-tubulin monoclonal antibodies, as above. Nocodazole (15 μM) was added to some reactions mixtures as a positive control for microtubule depolymerization.

HeLa cells [2] = assay: Cell-based assay for CPAP activity: microtubule reassembly in cold-treated transfected HeLa cells; design: species or system human; conditions: transiently transfected HeLa cells
Procedure: Cell Culture and Transfection
(§1) HeLa cells were maintained in DMEM supplemented with 10% fetal bovine serum. cDNA clones encoding different portions of CPAP were subcloned, in an appropriate reading frame, into the CMV promoter-driven EGFP-C1 expression vector (Clontech, Palo Alto, Calif.). Transient transfections were performed using Lipofectamine 2000 (Invitrogen, Carlsbad, Calif.) according to the manufacturer's instructions.
Cold Treatment, Immunofluorescence and Confocal Microscopy
HeLa cells were grown on coverslips for at least 24 hr. Cold treatment was performed by incubating the cells at 4° C. for 1 hr, then replacing the cold medium with medium warmed to 30° C. and incubating the cells for 2 min at 30° C. The cells were then fixed with 1% formaldehyde for 30 min at room temperature.
The fixed cells were incubated in the presence of anti-α-tubulin monoclonal antibodies (N356, Amersham, Piscataway, N.J.) and anti-γ-tubulin polyclonal antibodies (Sigma, Saint Louis, Mo.). Bound anti-α-tubulin monoclonal antibodies (N356) were detected with Alexa 568, a Texas Red-conjugated goat anti-mouse IgG, or Alexa 647, a far-red fluorophore-conjugated goat anti-mouse IgG. Bound anti-γ-tubulin polyclonal antibodies were detected with Alexa 568 (Molecular Probes Inc.). The resulting […] signals were detected using a laser scanning confocal system (MRC 1000, Bio-Rad Laboratories, Hercules, Calif.).
The effect of various polypeptides derived from CPAP was determined by evaluating the amounts of mitotic spindle formation in the transfected cells. Decreased mitotic spindle formation indicated the presence of an activity that inhibited microtubule formation or destabilized microtubules.

HeLa cells [3] = assay: Flow cytometric cell cycle analysis of transfected HeLa cells; assay type: cell-based, human; conditions: transiently transfected HeLa cells
Procedure: as §1
Transfected HeLa cells were harvested 48 hr following transfection. Both the adherent cells and non-adherent cells present in the culture supernatants were collected and subjected to centrifugation. The resulting cell pellets were resuspended in PBS then fixed in 1% formaldehyde at 4° C. for 30 min. Following fixation, the cells were collected by centrifugation, washed, and resuspended in 70% cold ethanol. The resuspended cells were either stored at −20° C. overnight or immediately used for FACS analysis.
FACS analysis was performed by collecting the fixed cells by centrifugation and resuspending the cells in DNA staining solution (100 μg/ml propidium iodide, 0.1% Triton X, and 100 μM EDTA in PBS) for 30 min at room temperature. Cell cycle analysis was performed on a FACS Calibur (Becton-Dickinson, Mountain View, Calif.) with the signal gated to measure only GFP fluorescence. Ten thousand events were acquired and the percentages of cells in G0/G1, S, and G2/M were determined using the ModfitLT software (version 2.0, Verity Software House, Inc., Topsham, Me.). The apparent accumulation of cells with two genome copies (i.e., twice the genetic material of G0/G1 cells) is indicative of cell cycle arrest after DNA synthesis but prior to mitosis.

T1 sequence (P81947 whole entry): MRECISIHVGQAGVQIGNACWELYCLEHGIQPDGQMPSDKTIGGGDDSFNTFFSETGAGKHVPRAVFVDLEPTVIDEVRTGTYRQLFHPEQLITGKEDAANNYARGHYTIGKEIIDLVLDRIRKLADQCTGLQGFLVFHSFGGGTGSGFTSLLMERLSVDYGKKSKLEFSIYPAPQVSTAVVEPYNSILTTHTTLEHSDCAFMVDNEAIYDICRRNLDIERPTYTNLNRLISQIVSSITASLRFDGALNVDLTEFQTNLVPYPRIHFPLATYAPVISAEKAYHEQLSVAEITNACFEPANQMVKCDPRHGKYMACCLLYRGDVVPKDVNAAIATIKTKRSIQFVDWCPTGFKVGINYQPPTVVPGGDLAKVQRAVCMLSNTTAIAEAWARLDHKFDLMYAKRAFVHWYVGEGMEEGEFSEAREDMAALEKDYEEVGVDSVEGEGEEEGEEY
T1 sequence (Q6B856 whole entry): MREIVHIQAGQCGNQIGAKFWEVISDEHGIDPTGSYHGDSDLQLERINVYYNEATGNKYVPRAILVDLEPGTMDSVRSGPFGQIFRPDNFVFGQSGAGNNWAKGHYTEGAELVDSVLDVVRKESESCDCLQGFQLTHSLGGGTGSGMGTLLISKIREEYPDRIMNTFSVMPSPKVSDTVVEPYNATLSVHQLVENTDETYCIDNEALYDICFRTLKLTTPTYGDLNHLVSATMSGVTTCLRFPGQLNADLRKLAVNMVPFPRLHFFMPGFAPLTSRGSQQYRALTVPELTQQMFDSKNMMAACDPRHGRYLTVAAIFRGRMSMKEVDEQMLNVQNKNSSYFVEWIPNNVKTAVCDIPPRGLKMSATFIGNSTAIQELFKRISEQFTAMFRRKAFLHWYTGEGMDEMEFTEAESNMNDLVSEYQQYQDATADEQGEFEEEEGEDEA
T2 sequence (P81947 whole entry): as the sequence (P81947 whole entry) above
T2 sequence (Q6B856 whole entry): as the sequence (Q6B856 whole entry) above

B1: GST-PN2-2: GST fusion polypeptide with sub-region PN2-2 of PN2 (CPAP residues 191-310 per b157) (protein)
chain: LSLLPDDQSQKHRSPGNTTTGERATCCFPSYVYPDPTQEETYPSNILSHEQSNFCRTAHGDFVLTSKRASPNLFSEAQYQEAPVEKNNLKEENRNHPTGESILCWEKVTEQIQEANDKNL
modifications: left off: a dimerising Fc or GST
Distribution of tubulin in the supernatant and pellet (in words) (Bovine brain α/β tubulin): little effect
Disassembly of polymerized microtubules in the absence of centrosomes (in words) [1]: no such effect

B2: GFP-PN2-3: GFP-tagged CPAP residues 311-422, expressed from a transfected vector (protein, UniProt Q9HC77 311-422, looked up, fragment)
chain: QKHDDSSEVANIEERPIKAAIGERKQTFEDYLEEQIQLEEQELKQKQLKEAEGPLPIKAKPKQPFLKRGEGLARFTNAKSKFQKGKESKLVTNQSTSEDQPLFKMDRQQLQR
modifications: GFP tag
notes: GFP-tagged CPAP residues 311-422, expressed from a transfected vector
Inhibition of microtubule reassembly in cold-treated mitotic cells (in words) (HeLa cells [2]): significantly inhibited microtubule reassembly
Cell cycle distribution by DNA content (in words) (HeLa cells [3]; propidium iodide, GFP-gated): progressive accumulation in G2/M
Cell morphology (in words) (HeLa cells [3]; data not shown): change in morphology (to round cells)
Cell proliferation (in words) (HeLa cells [3]; data not shown): stopped proliferating
